Measured values reported in IntAct's records for PubMed 24240280.

How the values were obtained:
[1] = target: T1, sv2c_human SV2C (UniProt Q496J9)
T1 sequence: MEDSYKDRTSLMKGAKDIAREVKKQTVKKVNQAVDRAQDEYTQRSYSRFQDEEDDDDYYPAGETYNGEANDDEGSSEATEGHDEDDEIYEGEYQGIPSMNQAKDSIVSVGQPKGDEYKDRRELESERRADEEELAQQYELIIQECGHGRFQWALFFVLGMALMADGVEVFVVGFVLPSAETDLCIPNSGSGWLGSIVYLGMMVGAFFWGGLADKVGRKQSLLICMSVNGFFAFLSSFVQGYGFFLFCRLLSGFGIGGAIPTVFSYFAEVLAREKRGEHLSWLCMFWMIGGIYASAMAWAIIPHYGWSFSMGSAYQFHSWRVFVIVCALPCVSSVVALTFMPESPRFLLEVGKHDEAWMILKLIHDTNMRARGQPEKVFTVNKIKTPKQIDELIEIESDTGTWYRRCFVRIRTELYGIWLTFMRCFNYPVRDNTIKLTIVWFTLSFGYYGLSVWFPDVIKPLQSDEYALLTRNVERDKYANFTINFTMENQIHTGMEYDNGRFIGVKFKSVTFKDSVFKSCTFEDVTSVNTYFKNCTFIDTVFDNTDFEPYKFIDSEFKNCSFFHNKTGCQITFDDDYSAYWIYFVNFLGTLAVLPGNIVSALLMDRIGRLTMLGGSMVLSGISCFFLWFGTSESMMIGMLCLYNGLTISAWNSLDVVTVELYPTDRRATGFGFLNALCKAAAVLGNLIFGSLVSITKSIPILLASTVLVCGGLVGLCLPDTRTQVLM

[2] = target: T1, sv2c_human SV2C; remark: listed apart in the source

Row | Substance | effect of a mutation on the interaction [1] | effect of a mutation on the interaction [2]
1 | Botulinum neurotoxin type A (Clostridium botulinum) (from UniProt P0DPI0) R1156E | decreasing interaction strength | –
2 | Botulinum neurotoxin type A (Clostridium botulinum) (from UniProt P0DPI0) R1294A | decreasing interaction strength | –
3 | Botulinum neurotoxin type A (Clostridium botulinum) (from UniProt P0DPI0) T1145A;T1146A | disrupting interaction strength | decreasing interaction strength
